Results on one variant are retold here after IntAct's records for PubMed 12681510.

B1: Rho guanine nucleotide exchange factor 1 (Homo sapiens), Q92888 (parent)
chain: MEDFARGAASPGPSRPGLVPVSIIGAEDEDFENELETNSEEQNSQFQSLEQVKRRPAHLMALLQHVALQFEPGPLLCCLHADMLGSLGPKEAKKAFLDFYHSFLEKTAVLRVPVPPNVAFELDRTRADLISEDVQRRFVQEVVQSQQVAVGRQLEDFRSKRLMGMTPWEQELAQLEAWVGRDRASYEARERHVAERLLMHLEEMQHTISTDEEKSAAVVNAIGLYMRHLGVRTKSGDKKSGRNFFRKKVMGNRRSDEPAKTKKGLSSILDAARWNRGEPQVPDFRHLKAEVDAEKPGATDRKGGVGMPSRDRNIGAPGQDTPGVSLHPLSLDSPDREPGADAPLELGDSSPQGPMSLESLAPPESTDEGAETESPEPGDEGEPGRSGLELEPEEPPGWRELVPPDTLHSLPKSQVKRQEVISELLVTEAAHVRMLRVLHDLFFQPMAECLFFPLEELQNIFPSLDELIEVHSLFLDRLMKRRQESGYLIEEIGDVLLARFDGAEGSWFQKISSRFCSRQSFALEQLKAKQRKDPRFCAFVQEAESRPRCRRLQLKDMIPTEMQRLTKYPLLLQSIGQNTEEPTEREKVELAAECCREILHHVNQAVRDMEDLLRLKDYQRRLDLSHLRQSSDPMLSEFKNLDITKKKLVHEGPLTWRVTKDKAVEVHVLLLDDLLLLLQRQDERLLLKSHSRTLTPTPDGKTMLRPVLRLTSAMTREVATDHKAFYVLFTWDQEAQIYELVAQTVSERKNWCALITETAGSLKVPAPASRPKPRPSPSSTREPLLSSSENGNGGRETSPADARTERILSDLLPFCRPGPEGQLAATALRKVLSLKQLLFPAEEDNGAGPPRDGDGVPGGGPLSPARTQEIQENLLSLEETMKQLEELEEEFCRLRPLLSQLGGNSVPQPGCT

The variants in one assay derive from B1. The conditions noted are these: with gna13_human GNA13, Q14344.
Chain of gna13_human GNA13, Q14344 (Q14344 whole entry): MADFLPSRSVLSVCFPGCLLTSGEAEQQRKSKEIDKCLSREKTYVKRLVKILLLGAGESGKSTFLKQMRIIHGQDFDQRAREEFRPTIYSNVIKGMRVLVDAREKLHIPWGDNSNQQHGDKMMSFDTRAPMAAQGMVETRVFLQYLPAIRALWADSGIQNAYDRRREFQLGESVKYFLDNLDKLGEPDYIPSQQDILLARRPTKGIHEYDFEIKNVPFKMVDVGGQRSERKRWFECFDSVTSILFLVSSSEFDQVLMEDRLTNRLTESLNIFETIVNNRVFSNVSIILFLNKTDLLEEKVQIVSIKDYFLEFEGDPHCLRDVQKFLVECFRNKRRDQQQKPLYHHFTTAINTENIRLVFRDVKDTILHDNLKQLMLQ
As for E27A;E29A, the “effect of a mutation on the interaction” value is listed as “decreasing interaction”.

The variants in a further assay derive from B1. The conditions noted are these: with gna13_human GNA13, Q14344. This is another data set of the same source.
Turning to E27A;E29A, the “effect of a mutation on the interaction” value is “decreasing interaction”.
